The record followed here is the RNAGym collection of RNA variant scans (doi:10.1073/pnas.2313332121).

B1: TPR 5TU (parent)
chain: GGAUCUUCUCGAUCUAACAAAAAAGACAAAUCUGCCACAAAGCUUGAGAGCAUCUUCGGAUGCAGAGGCGGCAGCCUUCGGUGGCGCGAUAGCGCCAACGUUCUCAACUAUGACACGCAAAACGCGUGCUCCGUUGAAUGGAGUUUAUCAUG

Fewer inactive variants are shown than the library holds.

The variants in this series derive from B1. Nature of the series: polymerase ribozyme fitness, log enrichment relative to wild type (log ratio); higher = more active; in vitro selection for triplet polymerase activity. The essentials: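 Streptavidin-bead capture of gel-excised extended constructs, followed by RT-PCR, closed a single triplicate in vitro selection round. That round began by annealing PCR-built, transcribed mutant libraries of each subunit of a heterodimeric triplet polymerase ribozyme with a biotinylated primer, the partner subunit and triplets, then incubating them frozen at −7 °C. After Illumina sequencing of inputs and outputs, genotypes needed ≥10 input reads and ≥1 read per output. Fitness is the base-2 logarithm of genotype enrichment over wild-type enrichment, using inverse-variance-weighted replicate averages.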
As for A20C G50U G81C C103U A120U, the “polymerase ribozyme fitness (log ratio)” value is -2. In the case of A3U C35A C43A A52G G88A C108G, the “polymerase ribozyme fitness (log ratio)” value was no more than -4.2. In the case of U33G U53A, the “polymerase ribozyme fitness (log ratio)” value was -3.68.

A26U G46C U55A C93U C103A A106G C114A: the “polymerase ribozyme fitness (log ratio)” value is no more than -4.2. With A20U C57U A66U C95A U102C G141A U145G, the “polymerase ribozyme fitness (log ratio)” value is no more than -4.2.

Take A47C A60G C85A: the “polymerase ribozyme fitness (log ratio)” value is -2.83. For C57U G59A G86A U134A U148A the value was no more than -4.2. With C27U U33G G68C C69U C76U C95A C103U A110C G133A U139G, the “polymerase ribozyme fitness (log ratio)” value was no more than -4.2. As for A73G G83U G84U, the “polymerase ribozyme fitness (log ratio)” value was -1.48. For the variant A23G U44A U61A G70U C76G C93G G143C, the “polymerase ribozyme fitness (log ratio)” value was no more than -4.2.

A49U C54U: the “polymerase ribozyme fitness (log ratio)” value was -1.34.

Take A29G U55G C57G C87A A107G: the “polymerase ribozyme fitness (log ratio)” value is no more than -4.2. For G46U G59C C96G, the “polymerase ribozyme fitness (log ratio)” value is -3.41. On to U44A A89U G92C C95U, for which the “polymerase ribozyme fitness (log ratio)” value was no more than -4.2.

For C8A U56A C79U G84C G112A C131U U146A, the “polymerase ribozyme fitness (log ratio)” value was no more than -4.2. With A12G G59A G94C, the “polymerase ribozyme fitness (log ratio)” value is -0.564. Consider A12U A19U C35A U61G C69U U78G G80C A97C G126U, for which the “polymerase ribozyme fitness (log ratio)” value was no more than -4.2.

As for G50U C51U C72U C93G U101C C108A G112U A113U A121G, the “polymerase ribozyme fitness (log ratio)” value was no more than -4.2. The result for G48U A98G reads -0.0311.

In the case of G83C C96U A147U G152A, the “polymerase ribozyme fitness (log ratio)” value is -1.98. On to A3G A29G A39G G86U C99G, for which the “polymerase ribozyme fitness (log ratio)” value is no more than -4.2. Consider A40U U61G C69U, for which the “polymerase ribozyme fitness (log ratio)” value was -1.67. On to U56A G59A A113C G152U, for which the “polymerase ribozyme fitness (log ratio)” value was no more than -4.2.

For the variant C54A C116U U139A, the “polymerase ribozyme fitness (log ratio)” value is -4.11. In the case of C57A U139A, the “polymerase ribozyme fitness (log ratio)” value is -3.84. With G42C G62C A73C G94U C118G A120U G133C, the “polymerase ribozyme fitness (log ratio)” value is no more than -4.2.

As to A30G C57A, the “polymerase ribozyme fitness (log ratio)” value is -2.9. The result for A52G C85A G140U reads no more than -4.2; that for U55A G124A, -0.272; that for U77A G81A A113U U134G, no more than -4.2. On to A22U U55A A115C C123U U130G, for which the “polymerase ribozyme fitness (log ratio)” value is -2.84. For C8G G11A A17U G71U G88U U127C U135G U148C A150C, the “polymerase ribozyme fitness (log ratio)” value is no more than -4.2. For the variant U6G A12U A23G C38A G83U U90G C95A, the “polymerase ribozyme fitness (log ratio)” value was no more than -4.2. With G81A C87U A97U, the “polymerase ribozyme fitness (log ratio)” value is -1.53. For the variant A3U A20U G50C, the “polymerase ribozyme fitness (log ratio)” value was no more than -4.2. In the case of A21G C57A, the “polymerase ribozyme fitness (log ratio)” value was 1.14. With U45G U61G C87G G88C C118G C129G G141A, the “polymerase ribozyme fitness (log ratio)” value was no more than -4.2. Consider U15G A26U A52G G83A U102G, for which the “polymerase ribozyme fitness (log ratio)” value is no more than -4.2. With U9C A17U A30G G42C C51A C87U, the “polymerase ribozyme fitness (log ratio)” value was no more than -4.2. G58C G80A C95U U127G C149G: the “polymerase ribozyme fitness (log ratio)” value is no more than -4.2. U33G G46A A49C U77C A98U C99U G152U: the “polymerase ribozyme fitness (log ratio)” value was no more than -4.2. Turning to A47C C51U G58C G70A C96U A106U U151C, the “polymerase ribozyme fitness (log ratio)” value is no more than -4.2. Consider U82G G100U G128A, for which the “polymerase ribozyme fitness (log ratio)” value is no more than -4.2.

Regarding G59A G92U U104C A121C, the “polymerase ribozyme fitness (log ratio)” value was -2.09. Consider A12G U77A C96A A98G, for which the “polymerase ribozyme fitness (log ratio)” value was no more than -4.2. As to C43U G58C C95A U102C C103G C105G A110U, the “polymerase ribozyme fitness (log ratio)” value was no more than -4.2. For the variant C103G A138G, the “polymerase ribozyme fitness (log ratio)” value is -3.66.

As for U33C A49G U77G U130A G133U U135A, the “polymerase ribozyme fitness (log ratio)” value was no more than -4.2. For C32U A40C C85G C103A the value was no more than -4.2. A37C C95U: the “polymerase ribozyme fitness (log ratio)” value is -2.04.

Turning to U53A C87U, the “polymerase ribozyme fitness (log ratio)” value is -0.931. For C32U A52U U90C G128C the value was no more than -4.2; for A89U C93G, -3.68; for A89U C93U, -1.6.

As for A24G C116G, the “polymerase ribozyme fitness (log ratio)” value is -2.85. In the case of G80C G83A A110U, the “polymerase ribozyme fitness (log ratio)” value was no more than -4.2. Take U4G U56A A60C C76G A91C C95U A142C: the “polymerase ribozyme fitness (log ratio)” value was no more than -4.2. As to U53A C93A C105A A119G, the “polymerase ribozyme fitness (log ratio)” value is no more than -4.2.

Consider U44C G94C U146A, for which the “polymerase ribozyme fitness (log ratio)” value is no more than -4.2. The result for C87A G112C C116G reads no more than -4.2. For A12G C14U G50A U53A C95U C99A C116U A150U the value was -4.15; for C69A G140U, -3.21; for A39C C79G G92A, -3.32. As for U6G A29G, the “polymerase ribozyme fitness (log ratio)” value is -3.97. Regarding A19U U61A G86U A107G A115U G152U, the “polymerase ribozyme fitness (log ratio)” value is no more than -4.2.

As for C38U U44A G70C U134G, the “polymerase ribozyme fitness (log ratio)” value is no more than -4.2.

With U61A C85U C87A C118G U134A, the “polymerase ribozyme fitness (log ratio)” value was no more than -4.2. As to C93U C114A, the “polymerase ribozyme fitness (log ratio)” value was -3.41. A41G G83C G143C: the “polymerase ribozyme fitness (log ratio)” value was -3.18. Take A73G C93A U146C: the “polymerase ribozyme fitness (log ratio)” value was -2.15. For C87A A89U C129G, the “polymerase ribozyme fitness (log ratio)” value is no more than -4.2.

As to A17U A30C C38U U53G G58U C99U C132U, the “polymerase ribozyme fitness (log ratio)” value is no more than -4.2.

Consider U53A G58A G80A G81A C87U, for which the “polymerase ribozyme fitness (log ratio)” value is -2.31. A40C G50A C95U U148C: the “polymerase ribozyme fitness (log ratio)” value is no more than -4.2.

For the variant U6G G11A G48U G50U A66G U90A G100U U102A A122C, the “polymerase ribozyme fitness (log ratio)” value was no more than -4.2. For C5A C38U G50A A60G C95A C103U G126U, the “polymerase ribozyme fitness (log ratio)” value was -3.13. Consider A121U C125U, for which the “polymerase ribozyme fitness (log ratio)” value was -0.154. On to C76G C96G C99G G140U U148G, for which the “polymerase ribozyme fitness (log ratio)” value was no more than -4.2. As for A17C A19U, the “polymerase ribozyme fitness (log ratio)” value stood at 0.475.

With U33C C69U, the “polymerase ribozyme fitness (log ratio)” value is -0.0558. Turning to C8A A26G A37C G62A A120G G140C G152A, the “polymerase ribozyme fitness (log ratio)” value was -4.13.

On to A64G U82G A91U C95U A110U U111G, for which the “polymerase ribozyme fitness (log ratio)” value was no more than -4.2. For A28U C75U G84U G86A C93U A106G A113U the value was no more than -4.2; for C5A U6G U13G U53A C116G G126U, -3.78.
